Laboratory results taken from patent publication US20250027068.

B1: PRT-435 (protein)
chain: MSQTEDSESLQRLRDIEDFQAEKEKQNVVYTKWLDGVDVKDHDFRKIVDGNIAYYATPLLNGRGFYDINKDFNRDSDKCAAAVAANMFHYWLDRNRDNVDRFLRQNPEKHGIIELPDGQLKLSDFLNTYESDDGYRDKSKLFDFISNNFNGPVWTDKLLDNYINGYAYNYKYGRTIEDPTKNTSKINFFKEVFNEKILTNNHSIRNQNEFSVLLSEALYTGKAIGLSYGPAGLRHSLGHIISVWGADLDADGNVVAIYVTDSDDKKLTIGDERVGLKRYKISTDDEGRLRLTAYEETHNTGGQIRGLWTLDTGKQAWADYFDKTEQTGTDQAEQ
B2: PRT-594 (protein)
chain: MANQEIRYSEETPSTITSVWTKGVTPPTDFIQNEDVLHAPYIANQGWYDITKTFNGKDDLLCGAATAGNMLHWWFDQNKEQIENYLKKHPEKQKINFNGEQMFDVKEAIDTKDSQLDSALFEYFKDKAFPYLSTKHLGVFPDHVIDMFINGYRLSLTNHGPTPVKRGTKDPRGGIFDAVFTRGDQSKLLTSRHDFKEKTLNEISDLIKQELTEGKALGLSHTYANVRINHVINLWGADFNAEGNLEAIYVTDSDSNASIGMKKYYVGVNSAGKVAISAKEIEGDNIGAQVLGLFTLSTGQDIWNQTNLEHHHHHH

What was measured:
[1] = target: pooled human IgG (human IgG1,2,3 and 4)
[2] = target: pooled human IgG (human IgG1, 2, 3 and 4)

Protein	Enzyme Activity Endpoint Assay: Fab′2 [1] [ng/µL]	Enzyme Activity Endpoint Assay: Fc [1] [ng/µL]	Enzyme Activity Endpoint Assay: IgG [1] [ng/µL]	Enzyme Activity Endpoint Assay: scIgG [1] [ng/µL]	Enzyme Activity Endpoint Assay (purified): Fab′2 [2] [ng/µL]	Enzyme Activity Endpoint Assay (purified): Fc [2] [ng/µL]	Enzyme Activity Endpoint Assay (purified): IgG [2] [ng/µL]	Enzyme Activity Endpoint Assay (purified): scIgG [2] [ng/µL]	Enzyme Activity Endpoint Assay (purified): Fab'2 [2] [ng/µL]
B1	35	205	625	380	35	205	625	380	–
B2	–	–	–	–	–	271	123	487	138
